The assay addresses Prokaryotic ubiquitin-like protein Pup from Corynebacterium glutamicum with C-terminal glutamate (Corynebacterium glutamicum) (UniProt Q8NQE0). The assay is described as follows: ITC; 25 °C, MicroCal iTC200; 150 µM CgluDop or 200 µM CgluDopGS injected into 15 or 20 µM CgluPupE in the cell; 50 mM Tris-HCl pH 8.0, 300 mM NaCl, 20 mM MgCl2; 1:1 binding model.

Chain of Prokaryotic ubiquitin-like protein Pup from Corynebacterium glutamicum with C-terminal glutamate (Corynebacterium glutamicum) (Q8NQE0 whole entry): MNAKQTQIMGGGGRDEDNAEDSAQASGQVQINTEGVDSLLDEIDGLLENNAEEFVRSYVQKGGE

In turn, “CgluDopGS, Dop-loop variant of Dop from Corynebacterium glutamicum (Dop-loop H43-I77 replaced with (GS)4) (enzyme)” registered a fold tighter affinity than the wild type enzyme of 2.5 fold.
